Measured values published in the supplement of paper PMC11246515.
± gives the standard deviation of the averaged measurements.

Experiment: total protein half-life in vivo (active degradation + dilution); higher = more stable protein
[1] = E. coli NCM3722 delta-clpP, growth: N-lim chemostat, doubling time 6 h
[2] = wild type E. coli NCM3722, growth: C-lim chemostat, doubling time 3 h
[3] = wild type E. coli NCM3722, growth: C-lim chemostat, doubling time 6 h
[4] = wild type E. coli NCM3722, growth: C-lim chemostat, doubling time 12 h
[5] = wild type E. coli NCM3722, growth: P-lim chemostat, doubling time 12 h
[6] = E. coli NCM3722 delta-smpB, growth: N-lim chemostat, doubling time 6 h
[7] = wild type E. coli NCM3722, growth: N-lim chemostat, doubling time 6 h
[8] = wild type E. coli NCM3722, growth: P-lim chemostat, doubling time 6 h
[9] = E. coli NCM3722 delta-clpP delta-lon delta-hslV, growth: N-lim chemostat, doubling time 6 h
[10] = E. coli NCM3722 delta-hslV, growth: N-lim chemostat, doubling time 6 h
[11] = E. coli NCM3722 delta-lon, growth: N-lim chemostat, doubling time 6 h
[12] = wild type E. coli NCM3722, growth: N-lim chemostat, doubling time 12 h

Row | Sequence | total protein half-life in vivo [1] [h] | total protein half-life in vivo [2] [h] | total protein half-life in vivo [3] [h] | total protein half-life in vivo [4] [h] | total protein half-life in vivo [5] [h] | total protein half-life in vivo [6] [h] | total protein half-life in vivo [7] [h] | total protein half-life in vivo [8] [h] | total protein half-life in vivo [9] [h] | total protein half-life in vivo [10] [h] | total protein half-life in vivo [11] [h] | total protein half-life in vivo [12] [h]
1 | MKNIKFSLAWQILFAMVLGILLGSYLHYHSDSRDWLVVNLLSPAGDIFIHLIKMIVVPIVISTLVVGIAGVGDAKQLGRIGAKTIIYFEVITTVAIILGITLANVFQPGAGVDMSQLATVDISKYQSTTEAVQSSSHGIMGTILSLVPTNIVASMAKGEMLPIIFFSVLFGLGLSSLPATHREPLVTVFRSISETMFKVTHMVMRYAPVGVFALIAVTVANFGFSSLWPLAKLVLLVHFAILFFALVVLGIVARLCGLSVWILIRILKDELILAYSTASSESVLPRIIEKMEAYGAPVSITSFVVPTGYSFNLDGSTLYQSIAAIFIAQLYGIDLSIWQEIILVLTLMVTSKGIAGVPGVSFVVLLATLGSVGIPLEGLAFIAGVDRILDMARTALNVVGNALAVLVIAKWEHKFDRKKALAYEREVLGKFDKTADQ | 2.63 | 2.87 | 4.95 | > 16 | 6.24 |  |  |  |  |  |  | 
2 | MAESTVTADSKLTSSDTRRRIWAIVGASSGNLVEWFDFYVYSFCSLYFAHIFFPSGNTTTQLLQTAGVFAAGFLMRPIGGWLFGRIADKHGRKKSMLLSVCMMCFGSLVIACLPGYETIGTWAPALLLLARLFQGLSVGGEYGTSATYMSEVAVEGRKGFYASFQYVTLIGGQLLALLVVVVLQHTMEDAALREWGWRIPFALGAVLAVVALWLRRQLDETSQQETRALKEAGSLKGLWRNRRAFIMVLGFTAAGSLCFYTFTTYMQKYLVNTAGMHANVASGIMTAALFVFMLIQPLIGALSDKIGRRTSMLCFGSLAAIFTVPILSALQNVSSPYAAFGLVMCALLIVSFYTSISGILKAEMFPAQVRALGVGLSYAVANAIFGGSAEYVALSLKSIGMETAFFWYVTLMAVVAFLVSLMLHRKGKGMRL [P0AEX3] |  | 2.88 ± 0.36 | 4.51 | 10 ± 2.4 | 6.27 ± 0.29 | 1.61 ± 0.23 | 2.01 | 4.35 ± 0.23 |  |  |  | 
3 | MFEINPVNNRIQDLTERSDVLRGYLDYDAKKERLEEVNAELEQPDVWNEPERAQALGKERSSLEAVVDTLDQMKQGLEDVSGLLELAVEADDEETFNEAVAELDALEEKLAQLEFRRMFSGEYDSADCYLDIQAGSGGTEAQDWASMLERMYLRWAESRGFKTEIIEESEGEVAGIKSVTIKISGDYAYGWLRTETGVHRLVRKSPFDSGGRRHTSFSSAFVYPEVDDDIDIEINPADLRIDVYRTSGAGGQHVNRTESAVRITHIPTGIVTQCQNDRSQHKNKDQAMKQMKAKLYELEMQKKNAEKQAMEDNKSDIGWGSQIRSYVLDDSRIKDLRTGVETRNTQAVLDGSLDQFIEASLKAGL | 4.669 ± 0.007 | 2.79 ± 0.044 | 4.99 ± 0.27 | 8.37 ± 0.37 | 8.54 ± 0.3 | 4.282 ± 0.0079 | 4.37 ± 0.28 | 4.6 ± 0.33 | 5.162 ± 0.05 | 4.335 ± 0.033 | 5.14 ± 0.28 | 6.87 ± 0.013
4 | MAYSKIRQPKLSDVIEQQLEFLILEGTLRPGEKLPPERELAKQFDVSRPSLREAIQRLEAKGLLLRRQGGGTFVQSSLWQSFSDPLVELLSDHPESQYDLLETRHALEGIAAYYAALRSTDEDKERIRELHHAIELAQQSGDLDAESNAVLQYQIAVTEAAHNVVLLHLLRCMEPMLAQNVRQNFELLYSRREMLPLVSSHRTRIFEAIMAGKPEEAREASHRHLAFIEEILLDRSREESRRERSLRRLEQRKN [P0ACL9] | 5.3 ± 0.09 | 2.94 ± 0.1 | 6.361 ± 0.042 | 9.49 ± 0.8 | 11.2 ± 1.1 | 4.54 ± 0.35 | 4.53 ± 0.67 | 5.59 ± 0.71 | 5.54 ± 0.1 | 4.94 ± 0.19 | 4.33 | 9.28
5 | MTRAVKPRRFAIRPIIYASVLSAGVLLCAFSAHADERDQLKSIQADIAAKERAVRQKQQQRASLLAQLKKQEEAISEATRKLRETQNTLNQLNKQIDEMNASIAKLEQQKAAQERSLAAQLDAAFRQGEHTGIQLILSGEESQRGQRLQAYFGYLNQARQETIAQLKQTREEVAMQRAELEEKQSEQQTLLYEQRAQQAKLTQALNERKKTLAGLESSIQQGQQQLSELRANESRLRNSIARAEAAAKARAEREAREAQAVRDRQKEATRKGTTYKPTESEKSLMSRTGGLGAPRGQAFWPVRGPTLHRYGEQLQGELRWKGMVIGASEGTEVKAIADGRVILADWLQGYGLVVVVEHGKGDMSLYGYNQSALVSVGSQVRAGQPIALVGSSGGQGRPSLYFEIRRQGQAVNPQPWLGR | 6.29 ± 0.37 | 3.18 ± 0.08 | 5.778 ± 0.045 | 11.3 ± 0.53 | 12.9 ± 0.95 | 6 ± 0.41 | 6.31 ± 0.22 | 5.92 ± 0.37 | 6.31 ± 0.39 | 6.76 ± 0.51 | 7.049 ± 0.041 | 13.1 ± 0.39
6 | MHEIFNMLLAVFDRAALMLICLFFLIRIRLFRELLHKSAHSPKELLAVTAIFSLFALFSTWSGVPVEGSLVNVRIIAVMSGGILFGPWVGIITGVIAGIHRYLIDIGGVTAIPCFITSILAGCISGWINLKIPKAQRWRVGILGGMLCETLTMILVIVWAPTTALGIDIVSKIGIPMILGSVCIGFIVLLVQSVEGEKEASAARQAKLALDIANKTLPLFRHVNSESLRKVCEIIRDDIHADAVAITNTDHVLAYVGVGEHNYQNGDDFISPTTRQAMNYGKIIIKNNDEAHRTPEIHSMLVIPLWEKGVVTGTLKIYYCHAHQITSSLQEMAVGLSQIISTQLEVSRAEQLREMANKAELRALQSKINPHFLFNALNAISSSIRLNPDTARQLIFNLSRYLRYNIELKDDEQIDIKKELYQIKDYIAIEQARFGDKLTVIYDIDEEVNCCIPSLLIQPLVENAIVHGIQPCKGKGVVTISVAECGNRVRIAVRDTGHGIDPKVIERVEANEMPGNKIGLLNVHHRVKLLYGEGLHIRRLEPGTEIAFYIPNQRTPVASQATLLL [P0AA93] | 6.87 ± 0.77 | 2.84 ± 0.064 |  |  | 14.8 ± 0.34 | 5.52 ± 0.31 | 5.53 ± 0.67 |  | 6.72 | 6.53 ± 0.56 |  | 
7 | MRIGIDLGGTKTEVIALGDAGEQLYRHRLPTPRDDYRQTIETIATLVDMAEQATGQRGTVGMGIPGSISPYTGVVKNANSTWLNGQPFDKDLSARLQREVRLANDANCLAVSEAVDGAAAGAQTVFAVIIGTGCGAGVAFNGRAHIGGNGTAGEWGHNPLPWMDEDELRYREEVPCYCGKQGCIETFISGTGFAMDYRRLSGHALKGSEIIRLVEESDPVAELALRRYELRLAKSLAHVVNILDPDVIVLGGGMSNVDRLYQTVGQLIKQFVFGGECETPVRKAKHGDSSGVRGAAWLWPQE | 5.38 ± 0.09 | 2.8 ± 0.4 | 5.8 ± 0.29 | 11.8 ± 2.8 | 11.7 ± 0.5 | 5.3 ± 0.66 | 5.18 ± 0.18 | 6.21 ± 0.56 | 5.21 ± 0.15 | 6.33 ± 1.9 | 5.67 ± 0.31 | 9.94 ± 4
8 | MILTDPEWQAVLLSLKVSSLAVLFSLPFGIFFAWLLVRCTFPGKALLDSVLHLPLVLPPVVVGYLLLVSMGRRGFIGERLYDWFGITFAFSWRGAVLAAAVMSFPLMVRAIRLALEGVDVKLEQAARTLGAGRWRVFFTITLPLTLPGIIVGTVLAFARSLGEFGATITFVSNIPGETRTIPSAMYTLIQTPGGESGAARLCIISIALAMISLLISEWLARISRERAGR [P0AF01] | 6.15 | 3.03 | 4.97 | 9.85 |  |  | 5.21 |  | 4.97 |  |  | 9.16
9 | MSNQEPATILLIDDHPMLRTGVKQLISMAPDITVVGEASNGEQGIELAESLDPDLILLDLNMPGMNGLETLDKLREKSLSGRIVVFSVSNHEEDVVTALKRGADGYLLKDMEPEDLLKALHQAAAGEMVLSEALTPVLAASLRANRATTERDVNQLTPRERDILKLIAQGLPNKMIARRLDITESTVKVHVKHMLKKMKLKSRVEAAVWVHQERIF [P0AF28] | 5.77 ± 2.1 | 3.06 ± 0.19 | 5.03 ± 0.15 | 10.1 ± 1.3 | 9.74 ± 1.3 | 4.166 ± 0.011 | 4.19 ± 0.087 | 5.39 ± 0.99 | 6.09 ± 2.1 | 4.05 ± 0.41 | 4.81 ± 0.33 | 7.26 ± 0.29
10 | MSGFFQRLFGKDNKPAIARGPLGLHLNSGFTLDTLAFRLLEDELLIALPGEEFTVAAVSHIDLGGGSQIFRYYTSGDEFLQINTTGGEDIDDIDDIKLFVYEESYGISKESHWREAINAKAMGAMTLNWQEKRWQRFFNSEEPGNIEPVYMLEKVENQNHAKWEVHNFTMGYQRQVTEDTYEYLLLNGEESFNDLGEPEWLFSRALGVDIPLTSLHIIG |  | 3.22 |  | 12.2 |  |  | 5.26 | 6.38 | 4.45 | 6.47 ± 1 | > 8 | 
11 | MATNAKPVYKRILLKLSGEALQGTEGFGIDASILDRMAQEIKELVELGIQVGVVIGGGNLFRGAGLAKAGMNRVVGDHMGMLATVMNGLAMRDALHRAYVNARLMSAIPLNGVCDSYSWAEAISLLRNNRVVILSAGTGNPFFTTDSAACLRGIEIEADVVLKATKVDGVFTADPAKDPTATMYEQLTYSEVLEKELKVMDLAAFTLARDHKLPIRVFNMNKPGALRRVVMGEKEGTLITE [P0A7E9] | 5.18 ± 0.45 | 3.24 ± 0.27 | 7 ± 1.2 | 10.4 ± 1.8 | 14.4 ± 0.48 | 4.49 ± 0.16 | 4.93 ± 0.33 | 5.84 ± 0.27 | 4.84 ± 0.3 | 4.79 ± 0.38 | 5.16 ± 0.34 | 8.29 ± 1
12 | MIREAQRSELPAILELWLESTTWGHPFIKANYWRDCIPLVRDAYLANAQNWVWEEDGKLLGFVSIMEGRFLAAMFVAPKAVRRGIGKALMQYVQQRHPHLMLEVYQKNQPAINFYQAQGFHIVDCAWQDETQLPTWIMSWPVVQTL |  | > 4 | 3.55 | 4.76 | 6.74 ± 0.19 |  | 2.33 ± 0.12 | 4.08 | 5.19 | 2.72 | 3.34 ± 0.79 | 3.08 ± 0.13
13 | MGKALVIVESPAKAKTINKYLGSDYVVKSSVGHIRDLPTSGSAAKKSADSTSTKTAKKPKKDERGALVNRMGVDPWHNWEAHYEVLPGKEKVVSELKQLAEKADHIYLATDLDREGEAIAWHLREVIGGDDARYSRVVFNEITKNAIRQAFNKPGELNIDRVNAQQARRFMDRVVGYMVSPLLWKKIARGLSAGRVQSVAVRLVVEREREIKAFVPEEFWEVDASTTTPSGEALALQVTHQNDKPFRPVNKEQTQAAVSLLEKARYSVLEREDKPTTSKPGAPFITSTLQQAASTRLGFGVKKTMMMAQRLYEAGYITYMRTDSTNLSQDAVNMVRGYISDNFGKKYLPESPNQYASKENSQEAHEAIRPSDVNVMAESLKDMEADAQKLYQLIWRQFVACQMTPAKYDSTTLTVGAGDFRLKARGRILRFDGWTKVMPALRKGDEDRILPAVNKGDALTLVELTPAQHFTKPPARFSEASLVKELEKRGIGRPSTYASIISTIQDRGYVRVENRRFYAEKMGEIVTDRLEENFRELMNYDFTAQMENSLDQVANHEAEWKAVLDHFFSDFTQQLDKAEKDPEEGGMRPNQMVLTSIDCPTCGRKMGIRTASTGVFLGCSGYALPPKERCKTTINLVPENEVLNVLEGEDAETNALRAKRRCPKCGTAMDSYLIDPKRKLHVCGNNPTCDGYEIEEGEFRIKGYDGPIVECEKCGSEMHLKMGRFGKYMACTNEECKNTRKILRNGEVAPPKEDPVPLPELPCEKSDAYFVLRDGAAGVFLAANTFPKSRETRAPLVEELYRFRDRLPEKLRYLADAPQQDPEGNKTMVRFSRKTKQQYVSSEKDGKATGWSAFYVDGKWVEGKK | 6.56 ± 0.69 | 2.57 ± 0.091 | 5.9591 ± 0.0017 | 10.5 ± 0.44 | 11.5 ± 0.38 | 5.43 ± 0.18 | 5.88 ± 0.34 | 5.24 ± 0.54 | 6.56 ± 0.22 | 5.9165 ± 0.0035 | 6.34 ± 0.074 | 12.4 ± 0.35
